± gives the uncertainty stated by the source.
Assay: amyloid nucleation score (Sup35N fusion, yeast selection) (log enrichment); library NNK2; higher = more nucleation; inactive = no reads after selection
How it was run: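 Plasmid inserts were Illumina-sequenced at input and output from psi-negative yeast expressing Sup35N fused to peptides of 20 random codons. The yeast were induced with 100 μM copper sulfate for 24 hours and grown 7 days at 30°C on medium lacking adenine and uracil, and sequences with under 100 input reads were excluded. Nucleation score is the DiMSum log enrichment of output over input reads, centred on the mode score of non-aggregating sequences.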

Row | Substance | amyloid nucleation score
1 | TDVIYYGYLSRRLQVYVLPS | -1.55 ± 1.1
2 | VSMNDVLYLMCS | -0.556 ± 0.25
3 | WFSRFSFCRKHYLTVNNWGL | -0.566 ± 0.49
4 | FEGLWQTFTMSLQGNLKYIF | -0.4 ± 0.74
5 | KKSSECHKSEG | 0.361 ± 0.45
6 | VLYQGALRYGNVRRGHLIRF | 0.105 ± 1.1
7 | WPIMMYGKFVFDRHIHCGAL | 0.141 ± 0.41
8 | MVRVYSVCDKDHQMYNHFFR | 0.67 ± 0.44
9 | YFFRMSWPLGPMTSFRTLYL | -0.608 ± 0.4
10 | VSWCFFDHYHSTILKHGTVS | inactive
11 | IIVGATKMLCCFHVMMVYAP | 0.472 ± 0.8
12 | WDQCLMLMCPNE | -0.291 ± 0.64
13 | MCHVKFIT | 3.18 ± 0.067
14 | NKRATALCNLHF | inactive
15 | SHISDVSKD | 0.679 ± 0.26
16 | NAWDVTKSYQHVHSCSIMLV | inactive
17 | NCWVVSQYTVVN | -0.77 ± 0.79
18 | DRYISLCGW | -0.086 ± 0.56
19 | VRLFLPHIYKMSLRDGGFEP | -0.349 ± 0.63
20 | SGGHNIVLMI | inactive
21 | RLNVL | -0.987 ± 0.53
22 | SVLQAYFRTWSQWIRYTCAG | -0.141 ± 0.31
23 | RVLKLCRLCHFKYLTSEAGV | -0.309 ± 0.34
24 | VRPRAPSSADNPLQ | 0.121 ± 0.49
25 | LECVT | 0.078 ± 0.74

Row | Substance | amyloid nucleation score
26 | IAAMTFFMMCLTYCVLWIAW | 1.71 ± 0.31
27 | HAKTWM | 0.066 ± 1
28 | FHHSHANSNVSRGIDIFGAV | -0.454 ± 0.32
29 | VDYKSFRNYTFMDHYCSPYN | 1.08 ± 0.18
30 | TCLVCVTEVAHDSHLNRVSH | 7.08 ± 0.082
31 | WHCLLGLNYLFGYVSYSTSW | 4.99 ± 0.098
32 | YRYLLVLSWRSMFAHRLLPS | 1.5 ± 0.5
33 | SFVLSSHKA | 0.175 ± 0.61
34 | HVLHCTYSQSSMEQLFCFNW | inactive
35 | EGCHVGNLDCLPSETATVSV | 0.143 ± 0.79
36 | SNVLTVIVCYTKAWINKSFM | inactive
37 | SCRGDKQERKPIHYVRHIWY | -0.798 ± 0.24
38 | ALPAFELGEFNNADHSHDDN | -0.464 ± 1.1
39 | DASMQF | 0.797 ± 0.57
40 | LVSIPSWCPTLASQKLIPR | 2.94 ± 0.19
41 | RYLETYHSHACVSFTERN | 0.606 ± 0.45
42 | TGGISYLD | inactive
43 | WMKFTWWRHEYYVVS | -0.195 ± 0.79
44 | YFLLVGAARIRRVKLLQ | -0.22 ± 0.62
45 | RAVDDYRE | 0.88 ± 0.3
46 | NRYTLDVVNFSNNYSISSNR | 1.76 ± 0.12
47 | ESQNECVGYNMLDCMKLSRG | 4.052 ± 0.037
48 | RLLFVWV | 4.12 ± 0.087
49 | VTRVWYRTSDCDAYSHGNFL | 0.991 ± 0.27
50 | VQRYRVFVAICFCGEMQRGF | inactive

Row | Substance | amyloid nucleation score
51 | CGQFAYYGACDVGIFFRS | 4.74 ± 0.037
52 | LGVFWIDWPLLLGFRSRTGV | -0.393 ± 1.1
53 | TGTPYRF | 1.11 ± 0.23
54 | RFCRHRMRGILP | 1.06 ± 0.17
55 | IVFFTECSYSLFRWIMNNVW | -1.4 ± 0.39
56 | CSCDGWVCPCSACIC | 8.708 ± 0.035
57 | PWPYIWSRCSQTDTVSCEHS | -0.212 ± 0.33
58 | MLVCRWNACSVVLSVSGLAR | 0.718 ± 0.21
59 | CINYG | 0.96 ± 0.39
60 | ERSNSRVVDL | -0.539 ± 0.44
61 | QFDAWAYMDRTPHGDSYRAA | 0.237 ± 0.65
62 | TTALGRFMFDLCNDDWYSLV | inactive
63 | DVIYNERTYLLFLTPHTMVV | -0.991 ± 0.63
64 | MAKSCGRSCTCSRSKVSVGG | 0.52 ± 0.57
65 | KGNTIKSCSRMMLHRQHVW | -0.485 ± 0.45
66 | EVELALGGSELGGVVSWLM | 1.77 ± 0.27
67 | ADEVLYYGCVSSCLMFGVLI | -0.069 ± 0.35
68 | IVLRFFGFMDHSSYRNLFKE | -0.375 ± 1.1
69 | SDMLLVISWFSFVKNK | 4.05 ± 0.073
70 | CWFMYPSMIDWWSMTSRECF | -0.129 ± 0.18
71 | FRFANRVTIKSFLGV | inactive
72 | DRPVCMYNMF | 1.63 ± 0.28
73 | ESSYVRIQ | 0.13 ± 0.4
74 | IPVYVAVIVG | inactive
75 | YVQTSKCGS | 7.1 ± 0.055

Row | Substance | amyloid nucleation score
76 | SGHISYG | 0.192 ± 0.56
77 | LTRLFYPWK | -0.14 ± 1.1
78 | ACHRFYLMKSML | 1.28 ± 0.36
79 | TVMYSGVG | 0.501 ± 0.46
80 | SRFLLKDKSNTSGVMQLGMW | -0.374 ± 0.41
81 | VKLIETSLLSFLIE | -0.33 ± 0.76
82 | YVCPIHLSDYEVTLECKSHG | 2.17 ± 0.18
83 | LATKMSRGYSIRDWS | 0.052 ± 0.24
84 | KWMLHSVR | 0.772 ± 0.22
85 | LFDSCSDSRMFNWMGPSNGQ | inactive
86 | PIGHLFQET | 0.92 ± 0.24
87 | VFWNIAFNSYMQRSCYIVVF | 2.12 ± 0.14
88 | CYIFYS | inactive
89 | VAFGLMDQDIFSRRILTRSS | inactive
90 | LWLGLFGCVVLHGFRIKMAL | 0.251 ± 0.35
91 | EDGGLCSASVRLYG | 0.379 ± 0.33
92 | QLHSLKKKRKY | -0.625 ± 0.28
93 | VLWNKSALNSKNSRTG | 2.57 ± 0.1
94 | LSPTYRFGTTSSWGINGRDT | 0.716 ± 0.24
95 | CQAVRRILCYWTAYDIERAV | 1.16 ± 0.22
96 | YTNSQYSPLPQQSNLKVSNI | -0.716 ± 0.56
97 | SMRDEVYIRFFMNRILSVRS | -0.803 ± 1
98 | WRLCVWPRCGTAKLS | 0.24 ± 0.32
99 | WHWISAYCTFICRKVLKEMP | 0.478 ± 0.4
100 | YKPRGHEVRSVG | -0.752 ± 0.48

Row | Substance | amyloid nucleation score
101 | GKCMV | 4.02 ± 0.095
102 | NTFGLEILRGWSYVCLGRRR | 5.323 ± 0.052
103 | VNLPD | 0.15 ± 0.56
104 | NSMNVEHNMYNLFIYMPSFV | 7.065 ± 0.07
105 | TTGNQLKKCVDKCGGRSGGE | 0.938 ± 0.45
106 | HMSCMSLSVIFDIILNLCSL | 6.097 ± 0.06
107 | TECYLDVHLLHCRCALRSTP | 6.83 ± 0.069
108 | VDIFMFKAAHIRAKGNVVGL | -0.429 ± 0.45
109 | YLCSSRITL | 1.31 ± 0.47
110 | RHSHRARKVGEWGNLCLVEK | 0.26 ± 0.21
111 | IVVSRMETSIKTCYFVMFHS | -0.421 ± 0.38
112 | LRYHKTILYTRFSRNHTYAT | 0.498 ± 0.74
113 | KDDSQLVLRDRPSRLWRLKE | 0.804 ± 0.53
114 | SRYIM | -1.06 ± 1.1
115 | SLFARRMWGGTVKWYNDRTY | -0.632 ± 0.76
116 | TFTGLFKKLI | inactive
117 | HTAMCAVSGFRNIWSKPVKF | -0.817 ± 1.1
118 | CNSSSGHDKIVIGSLFRVFA | -1.42 ± 0.62
119 | LDSWRPN | -0.393 ± 0.39
120 | DGELVVWFMVMSWWNIKDSK | -0.446 ± 1
121 | YPPSVLFVSALHQVGTMSGG | 0.003 ± 0.3
122 | SSSTFCCLWTFDTRVQFLVN | 7.39 ± 0.079
123 | VVLRVLISFSHSTIRLEGLV | 2.84 ± 0.093
124 | MASTIWIMLVYDLNARKMHI | 4.87 ± 0.073
125 | YFFKRIW | inactive

Row | Substance | amyloid nucleation score
126 | IYIGLCLRDYILDNMALMRQ | -0.721 ± 0.32
127 | VCRLFLYGQWLVGRRANSYS | -0.731 ± 0.39
128 | SIGIRIEVLHAYLQTVISNA | -0.639 ± 1
129 | IVRELAVVLKKFYLFALFLR | -0.882 ± 0.62
130 | AVQAIITHQTLGKQVFFWFE | 7.85 ± 0.076
131 | ASDWLNRNSNS | -0.211 ± 0.28
132 | VLNIARVRHDKG | 3.7 ± 0.051
133 | CAIKFPYQFTYLNINNQ | 6.229 ± 0.044
134 | MVCVELFWFARLSLPGA | 0.246 ± 1.1
135 | KSVASVMVYYALRIPYHIEC | inactive
136 | FVFIYYIVLQHATANHSMQA | 4.921 ± 0.044
137 | VIPYILTCWVYFIDCLWRRK | 0.948 ± 0.66
138 | YMTPVLDSHSFADVSAIRCV | 0.212 ± 0.39
139 | PYRLHMCCWEPLRSMLFMSF | 1.03 ± 0.31
140 | LLFSSSSLPIGTGGYDLTAG | -0.408 ± 1.1
141 | CRARNCVRLW | 0.165 ± 0.65
142 | LGICPFNGSLRS | -1.65 ± 1.1
143 | ERVQMFQIRVQSAYVVFGVS | 4.75 ± 0.077
144 | RRYGKW | 1.67 ± 0.41
145 | WFMRDMEYFPDGLGDYG | inactive
146 | SRNTVLYISLSFLTPYISCC | 8.221 ± 0.028
147 | QLWSAWWHTVKKTGRRWWHR | 0.921 ± 0.19
148 | SGPVVQDKVYHRVNYF | -0.369 ± 1.1
149 | YSCVDAYG | inactive
150 | ILSFTGASNFVCYMIVAKAG | 6.386 ± 0.033

Row | Substance | amyloid nucleation score
151 | VALRWTIRQWFSDVYPWSWY | 0.802 ± 0.45
152 | KVKSLYLSMVQGWMFYV | -0.425 ± 0.24
153 | MGLTEEVIKWQGHVGWTWAG | 1.55 ± 0.29
154 | YVYERIDSERRTRPCKKKMY | inactive
155 | RIYNYWTIARKFFRV | -1.24 ± 0.55
156 | TEIKSCKDNTHVHMHSLIRA | 0.384 ± 0.43
157 | NLRHKDGTGLLRSWMSIQRR | 0.436 ± 0.62
158 | KRILQMDHRLLNHNSELLKR | -0.397 ± 0.45
159 | DSILLSLCPTNCFKN | -0.148 ± 0.63
160 | VSSVVLCIIIRDGSMMFYYK | inactive
161 | GVMIRKSARYYL | -0.275 ± 0.79
162 | DRARRVVIIWVYLIDRVNVR | 0.004 ± 1.1
163 | CVECYFRCGLGITEVDTN | inactive
164 | MPTIRNWVCW | 0.639 ± 0.47
165 | WGCWTVRSTT | 0.92 ± 0.46
166 | SCCNL | -0.11 ± 0.19
167 | SKLFESLVTCLIKGLHVVNN | 0.479 ± 0.74
168 | SRFLFCVPHVDCWLLTWNLS | 6.68 ± 0.073
169 | VGFSLLNKTLCFGDRCTNIS | inactive
170 | EIVLFFCPVVKCME | 3.08 ± 0.098
171 | PMCYSVSSNLWVTTLQWGYL | 2.56 ± 0.14
172 | WSMVQLPFSFIYPRGYLNMG | -0.615 ± 0.64
